The results in this text go back to publication PMC12139977.

The target in experiment [1] is Syntaxin-1A (rat (endogenous in INS1 (832/13))) (UniProt P32851). Description: co-IP.
The target is the same in experiment [2]. Description: proximity ligation.

Sequence of UniProt P32851 (P32851 whole entry): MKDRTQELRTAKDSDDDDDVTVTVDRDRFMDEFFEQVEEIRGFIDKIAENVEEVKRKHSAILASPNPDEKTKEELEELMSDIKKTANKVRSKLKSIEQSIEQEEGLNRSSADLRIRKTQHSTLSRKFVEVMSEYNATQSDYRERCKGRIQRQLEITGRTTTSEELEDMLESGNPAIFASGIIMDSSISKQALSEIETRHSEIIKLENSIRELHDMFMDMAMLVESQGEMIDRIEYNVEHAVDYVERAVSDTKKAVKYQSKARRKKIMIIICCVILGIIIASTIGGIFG

In turn, “stabilized V5-tagged Tomosyn-2 (natural protein)” came in with a fold increase of Tomosyn-2 bound to Stx1A against control cells in experiment [1] of 3 fold.

The substance Tomosyn-2 (natural protein) came in with a fold increase of PLA signal over the control in experiment [2] of 8 fold.
